Values of other authors, collected in article PMC10967246.
Like-named read-outs stand apart in the source and are kept apart here.

Tests used:
[1] = target: GluTR (Arabidopsis thaliana) (UniProt P42804)
[2] = target: GluTR (Arabidopsis thaliana) (UniProt P42804); test: MST

GluTR (Arabidopsis thaliana), sequence (P42804 62-543): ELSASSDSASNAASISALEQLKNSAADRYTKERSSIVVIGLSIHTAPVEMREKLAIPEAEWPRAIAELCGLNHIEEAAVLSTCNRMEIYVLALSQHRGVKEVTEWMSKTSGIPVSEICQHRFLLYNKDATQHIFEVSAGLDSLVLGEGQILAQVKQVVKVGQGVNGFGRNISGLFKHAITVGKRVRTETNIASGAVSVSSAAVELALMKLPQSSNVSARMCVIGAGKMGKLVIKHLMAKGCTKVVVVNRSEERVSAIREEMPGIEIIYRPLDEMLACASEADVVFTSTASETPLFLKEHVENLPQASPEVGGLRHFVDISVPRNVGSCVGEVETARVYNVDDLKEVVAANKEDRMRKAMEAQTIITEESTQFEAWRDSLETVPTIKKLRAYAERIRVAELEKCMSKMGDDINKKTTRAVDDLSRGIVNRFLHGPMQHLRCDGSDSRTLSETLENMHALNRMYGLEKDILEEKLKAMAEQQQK
GBP, sequence (Q9LU39 43-317): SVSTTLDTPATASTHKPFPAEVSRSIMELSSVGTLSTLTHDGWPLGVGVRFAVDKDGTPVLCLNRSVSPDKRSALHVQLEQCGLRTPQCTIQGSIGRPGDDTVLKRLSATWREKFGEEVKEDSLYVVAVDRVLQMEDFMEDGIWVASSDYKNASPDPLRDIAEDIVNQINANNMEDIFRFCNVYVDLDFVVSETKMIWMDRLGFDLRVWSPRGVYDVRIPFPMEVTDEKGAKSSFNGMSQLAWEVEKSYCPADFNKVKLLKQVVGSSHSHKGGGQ
FLU TPR domain, sequence (Q940U6 203-316): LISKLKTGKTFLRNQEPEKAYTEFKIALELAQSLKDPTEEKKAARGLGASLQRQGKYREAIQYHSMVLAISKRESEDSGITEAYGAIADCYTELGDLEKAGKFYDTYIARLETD

Substance | Kd [1] [nM] | Kd [2] [nM]
FLU TPR domain (from UniProt Q940U6) | 475 | –
GBP (from UniProt Q9LU39) | – | 42
